Results on four molecules are retold here after article PMC4783044, “Stoichiometry and Change of the mRNA Closed-Loop Factors as Translating Ribosomes Transit from Initiation to Elongation” (PLoS ONE, 2016).

Where two headings read alike, the source gives them in different places. Bounds are passed on as bounds.

The target of test [1] is T1, Flag-PAB1 (yeast, UniProt P04147 1-577).
T1 sequence (looked up): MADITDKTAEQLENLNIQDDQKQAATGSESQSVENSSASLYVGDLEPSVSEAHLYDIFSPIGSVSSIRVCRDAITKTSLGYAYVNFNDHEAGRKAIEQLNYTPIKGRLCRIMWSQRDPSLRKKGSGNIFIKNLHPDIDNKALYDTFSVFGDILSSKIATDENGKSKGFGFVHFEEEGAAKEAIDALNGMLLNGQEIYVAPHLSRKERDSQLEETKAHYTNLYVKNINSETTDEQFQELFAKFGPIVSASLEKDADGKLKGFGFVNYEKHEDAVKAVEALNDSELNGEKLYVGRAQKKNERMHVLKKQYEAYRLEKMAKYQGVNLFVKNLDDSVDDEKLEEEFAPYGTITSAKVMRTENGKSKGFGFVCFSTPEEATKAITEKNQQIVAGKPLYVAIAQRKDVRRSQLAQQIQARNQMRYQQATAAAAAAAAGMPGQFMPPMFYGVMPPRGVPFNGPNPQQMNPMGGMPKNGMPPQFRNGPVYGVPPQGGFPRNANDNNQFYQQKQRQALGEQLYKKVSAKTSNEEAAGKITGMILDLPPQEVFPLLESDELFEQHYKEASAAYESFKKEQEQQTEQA
Kind of test: co-IP + AUC; one-step anti-Flag bead purification from yeast crude extract (Tris pH 7.5, 0.15 M KCl, 2 mM MgCl2, 10% glycerol, 4°C), Flag peptide elution, then AU-FDS of the GFP fusion with AU-A230 or AU-A260 (20°C, 15,000 rpm); material migrating at 77S (monosomal translating complex); cycloheximide added to cells; cells on glucose (elongation), or glucose depleted 10 min and glucose added back for 1 min or 0 min (initiation).

In test [2] the target is T2, eIF4E-Flag (yeast, UniProt P07260 1-213).
T2 sequence (looked up): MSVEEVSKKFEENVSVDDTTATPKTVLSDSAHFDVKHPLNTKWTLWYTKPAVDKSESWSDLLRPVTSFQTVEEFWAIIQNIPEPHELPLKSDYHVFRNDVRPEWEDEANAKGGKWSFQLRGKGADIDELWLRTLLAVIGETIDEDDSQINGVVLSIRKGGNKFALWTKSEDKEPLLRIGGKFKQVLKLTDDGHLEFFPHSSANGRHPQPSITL
The description is as above.

The target of test [3] is T1, Flag-PAB1. Kind of test: co-IP + AUC; as a1, but material migrating from 90S to 200S (polysomal translating complexes); cells on glucose (elongation), or glucose depleted 10 min and glucose added back for 1 min (initiation).
The target in test [4] is T2, eIF4E-Flag. The description is as above.
Another test concerns the target Flag-SBP1 (yeast) (UniProt P10080). Kind of test: co-IP + AUC; one-step anti-Flag bead purification from yeast crude extract (Tris pH 7.5, 0.15 M KCl, 2 mM MgCl2, 10% glycerol, 4°C), Flag peptide elution, then AU-FDS of the GFP fusion with AU-A230 or AU-A260 (20°C, 15,000 rpm); material migrating at 77S (monosomal translating complex); cycloheximide added to cells; cells on glucose (elongation), or glucose depleted 10 min and glucose added back for 1 min or 0 min (initiation).

Test [5] deals with T1, Flag-PAB1. Description: co-IP + AUC; one-step anti-Flag bead purification from yeast crude extract (Tris pH 7.5, 0.15 M KCl, 2 mM MgCl2, 10% glycerol, 4°C), Flag peptide elution, then AU-FDS of the GFP fusion with AU-A230 or AU-A260 (20°C, 15,000 rpm); material migrating at 77S (monosomal translating complex); cycloheximide added to cells; cells on glucose (elongation), or glucose depleted 10 min and glucose added back for 1 min or 0 min …. To be noted: partners not purified.

The target in test [6] is T2, eIF4E-Flag. Described as above. To be noted: partners not purified.

Chain of Flag-SBP1 (yeast) (P10080 whole entry, the tested form may be a part): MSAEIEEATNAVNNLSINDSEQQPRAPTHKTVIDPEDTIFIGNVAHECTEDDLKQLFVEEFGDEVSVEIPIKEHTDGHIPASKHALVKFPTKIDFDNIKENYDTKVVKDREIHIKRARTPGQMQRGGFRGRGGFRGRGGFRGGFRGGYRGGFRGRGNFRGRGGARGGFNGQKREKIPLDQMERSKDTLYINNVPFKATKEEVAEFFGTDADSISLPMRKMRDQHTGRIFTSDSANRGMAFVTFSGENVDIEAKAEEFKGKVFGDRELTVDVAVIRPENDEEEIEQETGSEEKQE

For “SBP1-GFP (from UniProt P10080 1-294) (natural protein)”, in the test with Flag-PAB1 [1], the relative level in the 77S monosomal translating complex, mRNA set at 100 (elongation) came to 2.1 per 100 mRNA and the relative level in the 77S monosomal translating complex, mRNA set at 100 (initiation) came to 3.3 per 100 mRNA. In addition, the relative level in the 77S monosomal translating complex, mRNA set at 100 (elongation) with eIF4E-Flag [2] was less than 0.3 per 100 mRNA. Besides, in the test with Flag-PAB1 [3], the percent of the polyadenylated polysomes that contain SBP1 stood at 8.6%; the relative level in the polysomal translating complexes (90S to 200S), mRNA set at 100 (elongation) was determined as 8.3 per 100 mRNA; the relative level in the polysomal translating complexes (90S to 200S), mRNA set at 100 (initiation) was determined as 11 per 100 mRNA. Also, the relative level in the polysomal translating complexes (90S to 200S), mRNA set at 100 (elongation) with eIF4E-Flag [4] was less than 0.3 per 100 mRNA.
For the molecule “eRF1-GFP (from UniProt P12385 1-437) (natural protein)”, the relative level in the 77S monosomal translating complex, mRNA set at 100 (elongation) with Flag-PAB1 [1] is 0.97 per 100 mRNA; with eIF4E-Flag [2], 2.8 per 100 mRNA; with Flag-SBP1 (yeast), less than 0.3 per 100 mRNA. Besides, in the test with Flag-PAB1 [1], the relative level in the 77S monosomal translating complex, mRNA set at 100 (initiation) stood at 0.97 per 100 mRNA. The relative level in the polysomal translating complexes (90S to 200S), mRNA set at 100 (elongation) in the test with Flag-PAB1 [3] and with eIF4E-Flag [4] was less than 0.3 per 100 mRNA throughout. In addition, the relative level in the polysomal translating complexes (90S to 200S), mRNA set at 100 (initiation) in the test with Flag-PAB1 [3] is less than 0.3 per 100 mRNA.

B1: eIF4G1-GFP (natural protein, yeast, UniProt P39935 1-952, looked up)
chain: MTDETAHPTQSASKQESAALKQTGDDQQESQQQRGYTNYNNGSNYTQKKPYNSNRPHQQRGGKFGPNRYNNRGNYNGGGSFRGGHMGANSSNVPWTGYYNNYPVYYQPQQMAAAGSAPANPIPVEEKSPVPTKIEITTKSGEHLDLKEQHKAKLQSQERSTVSPQPESKLKETSDSTSTSTPTPTPSTNDSKASSEENISEAEKTRRNFIEQVKLRKAALEKKRKEQLEGSSGNNNIPMKTTPENVEEKGSDKPEVTEKTKPAEEKSAEPEVKQETPAEEGEQGEKGQIKEESTPKVLTFAERLKLKKQQKEREEKTEGKENKEVPVQEETKSAIESAPVPPSEQVKEETEVAETEQSNIDESATTPAIPTKSDEAEAEVEAEAGDAGTKIGLEAEIETTTDETDDGTNTVSHILNVLKDATPIEDVFSFNYPEGIEGPDIKYKKEHVKYTYGPTFLLQFKDKLNVKADAEWVQSTASKIVIPPGMGRGNRSRDSGRFGNNSSRGHDFRNTSVRNMDDRANSRTSSKRRSKRMNDDRRSNRSYTSRRDRERGSYRNEEKREDDKPKEEVAPLVPSANRWVPKFKSKKTEKKLAPDGKTELLDKDEVERKMKSLLNKLTLEMFDAISSEILAIANISVWETNGETLKAVIEQIFLKACDEPHWSSMYAQLCGKVVKELNPDITDETNEGKTGPKLVLHYLVARCHAEFDKGWTDKLPTNEDGTPLEPEMMSEEYYAAASAKRRGLGLVRFIGFLYRLNLLTGKMMFECFRRLMKDLTDSPSEETLESVVELLNTVGEQFETDSFRTGQATLEGSQLLDSLFGILDNIIQTAKISSRIKFKLIDIKELRHDKNWNSDKKDNGPKTIQQIHEEEERQRQLKNNSRSNSRRTNNSSNRHSFRRDAPPASKDSFITTRTYSQRNSQRAPPPKEEPAAPTSTATNMFSALMGESDDEE
notes: eIF4G1 of yeast, GFP fusion; the printed name puts GFP after the protein; also called eIFG1; source: yeast strain carrying the GFP fusion at the chromosomal location, in crude extract
For the molecule B1, the values for the relative level in the 77S monosomal translating complex, mRNA set at 100 (elongation) with Flag-SBP1 (yeast), with Flag-PAB1 [5] and in the test with eIF4E-Flag [6] were less than 0.3 per 100 mRNA, 5.6 per 100 mRNA and 19 per 100 mRNA, respectively. For the same molecule, the “relative level in the polysomal translating complexes (90S to 200S), mRNA set at 100 (elongation)” value with Flag-PAB1 [3] (partners not purified) worked out at 18 per 100 mRNA; with eIF4E-Flag [4] (partners not purified) it was 75 per 100 mRNA. The “relative level in the polysomal translating complexes (90S to 200S), mRNA set at 100 (initiation)” value with Flag-PAB1 [3] (partners not purified) amounted to 26 per 100 mRNA; in the test with eIF4E-Flag [4] (partners not purified), 79 per 100 mRNA. Further, the “relative level in the 77S monosomal translating complex, mRNA set at 100 (initiation)” value in the test with Flag-PAB1 [5] was determined as 8.7 per 100 mRNA; with eIF4E-Flag [6], 20 per 100 mRNA.

B2: eIF4G2-GFP (natural protein, yeast, UniProt P39936 1-914, looked up)
chain: MTDQRGPPPPHPQQANGYKKFPPHDNQYSGANNSQPNNHYNENLYSAREPHNNKQYQSKNGKYGTNKYNNRNNSQGNAQYYNNRFNNGYRLNNNDYNPAMLPGMQWPANYYAPQMYYIPQQMVPVASPPYTHQPLNTNPEPPSTPKTTKIEITTKTGERLNLKKFHEEKKASKGEEKNDGVEQKSKSGTPFEKEATPVLPANEAVKDTLTETSNEKSTSEAENTKRLFLEQVRLRKAAMERKKNGLISETEKKQETSNHDNTDTTKPNSVIESEPIKEAPKPTGEANEVVIDGKSGASVKTPQHVTGSVTKSVTFNEPENESSSQDVDELVKDDDTTEISDTTGGKTVNKSDDETINSVITTEENTVKETEPSTSDIEMPTVSQLLETLGKAQPISDIYEFAYPENVERPDIKYKKPSVKYTYGPTFLLQFKDKLKFRPDPAWVEAVSSKIVIPPHIARNKPKDSGRFGGDFRSPSMRGMDHTSSSRVSSKRRSKRMGDDRRSNRGYTSRKDREKAAEKAEEQAPKEEIAPLVPSANRWIPKSRVKKTEKKLAPDGKTELFDKEEVERKMKSLLNKLTLEMFDSISSEILDIANQSKWEDDGETLKIVIEQIFHKACDEPHWSSMYAQLCGKVVKDLDPNIKDKENEGKNGPKLVLHYLVARCHEEFEKGWADKLPAGEDGNPLEPEMMSDEYYIAAAAKRRGLGLVRFIGYLYCLNLLTGKMMFECFRRLMKDLNNDPSEETLESVIELLNTVGEQFEHDKFVTPQATLEGSVLLDNLFMLLQHIIDGGTISNRIKFKLIDVKELREIKHWNSAKKDAGPKTIQQIHQEEEQLRQKKNSQRSNSRFNNHNQSNSNRYSSNRRNMQNTQRDSFASTKTGSFRNNQRNARKVEEVSQAPRANMFDALMNNDGDSD
notes: eIF4G2 of yeast, GFP fusion; The printed name puts GFP after the protein; also called TIF4632-GFP; source: yeast strain RP2384 (TIF4632-GFP::G418), in crude extract
Take B2: the results for the relative level in the 77S monosomal translating complex, mRNA set at 100 (elongation) with Flag-SBP1 (yeast), with Flag-PAB1 [5] and with eIF4E-Flag [6] were less than 0.3 per 100 mRNA, 3.9 per 100 mRNA and 15 per 100 mRNA, respectively. The “relative level in the polysomal translating complexes (90S to 200S), mRNA set at 100 (elongation)” value amounted to 9.4 per 100 mRNA in the test with Flag-PAB1 [3] (partners not purified) and 61 per 100 mRNA with eIF4E-Flag [4] (partners not purified). The “relative level in the polysomal translating complexes (90S to 200S), mRNA set at 100 (initiation)” value in the test with Flag-PAB1 [3] (partners not purified) was found to be 13 per 100 mRNA; in the test with eIF4E-Flag [4] (partners not purified) it was 56 per 100 mRNA. The figures for the “relative level in the 77S monosomal translating complex, mRNA set at 100 (initiation)” value in the test with Flag-PAB1 [5] and with eIF4E-Flag [6] were 6.2 per 100 mRNA and 15 per 100 mRNA, respectively.
